Laboratory results from patent US5889173A, “DNA encoding multifunctional neurothrophic factors” (priority 1996, dated 1999).

Legend:
[1] = test system: E8 chick sympathetic ganglia; experiment: Neurite outgrowth from explanted E8 chick sympathetic ganglia; type: cell-based; conditions: for Biological Activity % of wild type (neurite outgrowth, sympathetic ganglia): explants of embryonic sympathetic ganglia, relative to wt NGF
Procedure: Fibre outgrowth was scored on a semiquantitative scale in biological units (BU) by comparison to standards obtained with purified mouse NGF, for which 1 BU is equivalent to approximately 5ng/ml. The concentration of each protein that gave 0.6 BU in this scale was determined, and used to calculate the relative activity compared to that obtained with wt NGF.

[2] = test system: dissociated E8 chick sympathetic neurons; experiment: Survival of dissociated E8 chick sympathetic neurons; type: cell-based; conditions: 2 ng/ml
Procedure: (§1) Dissociated neurons from chick E8 sympathetic and nodose ganglia were preplated on plastic for 2 hr and then cultured in 96 well-plates coated with poly-L-ornithine and laminin at a density of 800-1000 cells/well. Serial dilutions of conditioned media containing equivalent amounts of recombinant proteins were added at the time of plating and neuronal survival was determined after 36-48 hr by phase contrast microscopy, scoring the number of surviving neurons in the entire well.

[3] = test system: dissociated E8 chick nodose neurons; experiment: Survival of dissociated E8 chick nodose ganglion neurons; type: cell-based; conditions: for Nodose neurons rescued (survival): saturating concentrations (20-50 ng/ml)
Procedure: as §1

[4] = test system: TrkA; experiment: Competitive TrkA receptor binding: displacement of 125I-NGF from rtrkA-3T3 cells; conditions: 125I-NGF displacement, relative binding from IC50 versus wt NGF
Procedure: NIH3T3 fibroblasts expressing TrkA, TrkB or TrkC were used at 2 to 1-33 10^6 cells/ml. […] All components were added at the same time and the cells were collected by centrifugation after equilibrium was reached (90-120 minutes incubation). Cell pellets were then counted in a gamma counter. […] Nonspecific binding was measured in a parallel incubation to which 300 to 1000-fold molar excess of unlabelled purified factor was added.

[5] = test system: TrkB and TrkA; conditions: literature; cited from earlier work
[6] = test system: TrkB; experiment: Tyrosine phosphorylation of TrkB receptors in rtrkB-3T3 cells; type: cell-based
Procedure: (§2) Plates were incubated 15 minutes at 4° C. after which insoluble material was removed by centrifugation. Cell lysates were normalized for protein content before immunoprecipitation. […] After 2 hr at 4° C., immunocomplexes were collected with Protein A-Sepharose (Pharmacia, Sweden), washed in lysis buffer and boiled for 5 minutes before SDS/PAGE. After electrophoresis, gels were blotted to nitrocellulose membranes, reacted with anti-phosphotyrosine monoclonal antibody 4G10 (UBI, New York) and developed with the ECL Western Detection System (Amersham, UK). Appropriately exposed autoradiograms of phosphotyrosine blots were used for densitometric scanning.

[7] = test system: TrkB; experiment: Competitive TrkB receptor binding: displacement of 125I-BDNF from rtrkB-3T3 cells; conditions: for Receptor Binding % of wild type (TrkB): rtrkB-3T3 cells, 125I-BDNF displacement, relative binding from IC50 versus wt BDNF
Procedure: Purified mouse NGF and BDNF were labeled with ^125 I by the lactoperoxidase method to an average specific activity of 1×10^8cpm/μg. For the labeling of BDNF, the modifications described by Rodriguez-Tebar et al. ([Rodriguez-Tebar, 1992]) were used. NIH3T3 fibroblasts expressing TrkA, TrkB or TrkC were used at 2 to 1-33 10^6 cells/ml. Steady state binding was measured in competition assays performed at 4° C. using 1.5×10^-9 M ^125 I-BDNF and serial dilutions of conditioned media containing equivalent amounts of wt or mutated NGF protein. All components were added at the same time and the cells were collected by centrifugation after equilibrium was reached (90-120 minutes incubation). Cell pellets were then counted in a gamma counter. […] Nonspecific binding was measured in a parallel incubation to which 300 to 1000-fold molar excess of unlabelled purified factor was added. All results were corrected for this nonspecific binding, which was less than 10% (for NGF) or 30% (for BDNF) of total binding. The concentration of each chimeric, mutant and wild type molecule that gave 50% binding (IC50) was determined, and relative binding was calculated using the relationship:(mutant IC50 /wild type IC50)×100.

[8] = test system: TrkA; experiment: Tyrosine phosphorylation of TrkA receptors in rtrkA-3T3 cells; type: cell-based; conditions: 100 ng/ml
Procedure: as §2

[9] = test system: TrkC; experiment: Tyrosine phosphorylation of TrkC receptors in Trk-expressing cells; type: cell-based; conditions: 100 ng/ml
Procedure: A confluent 10 cm plate containing about 10^7 rtrk-3T3 or rtrkB-3T3 cells was treated for 5 minutes at 37° C. with wt, chimeric or mutant factors and subsequently lysed with 1 ml of ice-cold buffer containing 1% NP40, 20 mM Tris pH 8.0, 137 mM NaCl, 2 mM EDTA, 10% glycerol, 1 mM PMSF, 0.15 U/ml aprotinin, 20 μM leupeptine and 1 mM Na orthovanadate. Plates were incubated 15 minutes at 4° C. after which insoluble material was removed by centrifugation. Cell lysates were normalized for protein content before immunoprecipitation. Trk immunoprecipitation was performed by incubating lysates with 1 μl of anti-TrkB polyclonal antiserum 443 ([Soppet, 1991]) which recognizes TrkA, TrkB and TrkC. After 2 hr at 4° C., immunocomplexes were collected with Protein A-Sepharose (Pharmacia, Sweden), washed in lysis buffer and boiled for 5 minutes before SDS/PAGE. After electrophoresis, gels were blotted to nitrocellulose membranes, reacted with anti-phosphotyrosine monoclonal antibody 4G10 (UBI, New York) and developed with the ECL Western Detection System (Amersham, UK). Appropriately exposed autoradiograms of phosphotyrosine blots were used for densitometric scanning.

For “wild-type NT-3: recombinant wild-type rat neurotrophin-3 (SEQ ID NO. 3) produced in COS cells [reference compound]”, the “Biological activity, neurite outgrowth from sympathetic ganglia (in words)” value [1] was “only a marginal effect”, the “Survival of dissociated sympathetic neurons (in words)” value [2] was “no survival” and the “Nodose neurons rescued (survival)” value [3] was 25%. The “Receptor Binding % of wild type (TrkA)” value [4] was “about 3 % of wild type” and the “Efficiency to mediate biological effects through TrkB and TrkA lower than BDNF or NGF” value [5] was “about 100 fold”.

B1: wt BDNF: recombinant wild-type brain-derived neurotrophic factor (SEQ ID NO. 2) produced in COS cells (protein)
chain: HSDPARRGELSVCDSISEWVTAADKKTAVDMSGGTVTVLEKVPVSKGQLKQYFYETKCNPMGYTKEGCRGIDKRHWSNQCRTTQSYVRALTMDSKKRIGWRFIRIDTSCVCTLTIKRGR
For B1, the “Biological Activity % of wild type (neurite outgrowth, sympathetic ganglia)” value [1] was < 0,2 % of wild type, the “EC50 of TrkB receptor phosphorylation” value ([6]; dose-response, densitometric scanning of phosphotyrosine blots, rtrkB-3T3 cells) was 5 ng/mL and the “Receptor Binding % of wild type (TrkB)” value [7] was 100 % of wild type. The “Nodose neurons rescued (survival)” value [3] was 40% and the “Receptor Binding % of wild type (TrkA)” value [4] was < 0,2 % of wild type.

B2: wt NGF: recombinant wild-type rat nerve growth factor (SEQ ID NO. 1) produced in COS cells (protein)
chain: SSTHPVFHMGEFSVCDSVSVWVGDKTTATDIKGKEVTVLGEVNINNSVFKQYFFETKCRAPNPVESGCRGIDSKHWSNYCTTTHTFVKALTTDDKQAAWRFIRIDTACVCVLSRKAARRG
For B2, the “Biological Activity % of wild type (neurite outgrowth, sympathetic ganglia)” value [1] was 100 % of wild type, the “Receptor Binding % of wild type (TrkB)” value [7] was < 0,2 % of wild type and the “Survival of nodose neurons (in words)” value [3] was “failed to rescue neurons”. The “Receptor Binding % of wild type (TrkA)” value [4] was 100 % of wild type.

B3: PNT-1: NT-3 with variable region V replaced from BDNF and amino terminus (residues 3-9) replaced from NGF (protein)
chain: B2 chain
With B3 the “TrkA tyrosine phosphorylation / activation (in words)” value [8] was “efficient tyrosine phosphorylation”, the “Biological activity, neurite outgrowth from sympathetic ganglia (in words)” value [1] was “efficiently stimulated neurite outgrowth” and the “Potency in neurite outgrowth from sympathetic ganglia lower than wild type NGF” value ([1]; dose-response curves) was 15 fold. The “Survival of dissociated sympathetic neurons (in words)” value [2] was “correlated with survival of dissociated sympathetic neurons”, the “TrkC tyrosine phosphorylation (in words)” value [9] was “efficient tyrosine phosphorylation” and the “TrkB tyrosine phosphorylation / activation (in words)” value ([6]; 100 ng/ml) was “efficient tyrosine phosphorylation”. The “TrkB receptor binding (in words)” value [7] was “not changed”, the “Increase of nodose neuron survival compared to NT-3” value ([3]; saturating concentrations) was roughly 2 fold and the “Nodose neurons rescued (survival)” value [3] was 45%. For the same molecule, the “Receptor Binding % of wild type (TrkA)” value [4] was ~50 % of wild type.
